Each block holds one molecule with its values, some of them ahead of it.
Key:
[1] = test system: HMM-mfMSR1 (monkey MSR1 extracellular domain); experiment: OCTET bio-layer interferometry binding kinetics of anti-MSR1 mAbs; conditions: 25° C., analyte HMM-mfMSR1, NB = no binding observed
Protocol: (§1) Binding affinities and kinetic constants of human anti-MSR1 antibodies for different MSR1 reagents were determined using a real time, label-free bio-layer interferometry assay on an OCTET® HTX biosensor platform (Pall FortéBio Corp., Menlo Park, CA). The experiment was performed at 25° C. in 10 mM HEPES, 150 mM NaCl, 3 mM EDTA, 0.05% v/v Surfactant Tween-20, and 1 mg/mL BSA, pH7.4 (HBS-EBT) buffer with the plate shaking at the speed of 1000 rpm. Binding studies were performed on human MSR1 extracellular domain expressed with a N-terminal nonahistidine tag (His9-hMSR1; R&D Systems, Cat #2708-MS), monkey MSR1 extracellular domain expressed with a N-terminal myc-myc-hexahistidine tag (HMM-mfMSR1; SEQ ID NO: 418), and mouse MSR1 extracellular domain expressed with a N-terminal nonahistidine tag (His9-mMSR1; R&D Systems, Cat #1797-MS). The anti-MSR1 monoclonal antibodies were captured by dipping either anti-human Fc (AHC) or anti-mouse Fc (AMC) Octet biosensors in wells containing 5 μg/mL or 10 μg/mL of anti-MSR1 monoclonal antibody for 45-90 seconds. The AHC captured anti-MSR1 monoclonal antibodies were then dipped in wells containing 50 nM of His9-mMSR1, while the AMC captured anti-MSR1 monoclonal antibodies were dipped in wells containing different concentrations of His9-hMSR1 or HMM-mfMSR1 (100 nM, 25 nM) or 100 nM His9-mMSR1. The binding of different MSR1 reagents to the captured anti-MSR1 monoclonal antibody was measured for 4 minutes and the dissociation of monoclonal antibody bound MSR1 reagent was monitored for 8-10 minutes in HBS-EBT buffer.
(§2) The association rate (ka) and dissociation rate (kd) were determined by fitting the real-time binding sensorgrams to a 1:1 binding model with mass transport limitation using Scrubber 2.0c curve-fitting software. Binding dissociation equilibrium constant (KD) and dissociative half-life (t½) were calculated from the kinetic rates as: […]
(§3) Binding kinetics parameters for His9-hMSR1, HMM-mfMSR1 or His9-mMSR1 binding to different anti-MSR1 monoclonal antibodies of the invention at 25° C. are shown in Tables 8 and 9.

[2] = molecular target: T1, His9-hMSR1 (human MSR1 extracellular domain) (Homo sapiens, UniProt P21757); experiment: as above; conditions: 25° C., analyte His9-hMSR1, NB = no binding observed
T1 construct: human MSR1 extracellular domain expressed with a N-terminal nonahistidine tag; His9 (nonahistidine) (N); purchased R&D Systems 2708-MS
T1 sequence (P21757 77-451 limits assumed): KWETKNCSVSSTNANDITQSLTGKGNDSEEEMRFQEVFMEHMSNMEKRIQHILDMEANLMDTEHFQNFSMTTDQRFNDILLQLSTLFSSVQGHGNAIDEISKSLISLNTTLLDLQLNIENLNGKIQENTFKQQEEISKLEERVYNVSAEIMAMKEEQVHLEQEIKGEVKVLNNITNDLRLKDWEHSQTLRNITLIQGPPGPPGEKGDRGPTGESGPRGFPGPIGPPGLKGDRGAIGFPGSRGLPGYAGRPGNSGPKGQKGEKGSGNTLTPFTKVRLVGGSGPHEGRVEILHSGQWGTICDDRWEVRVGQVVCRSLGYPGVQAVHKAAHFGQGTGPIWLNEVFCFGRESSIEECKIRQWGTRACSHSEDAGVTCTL
Protocol: as §1, §2, §3

[3] = molecular target: T2, PMA-treated THP-1 cells (endogenously expressed human MSR1) (Homo sapiens, UniProt P21757); experiment: Electrochemiluminescence antibody binding assay on MSR1-expressing cells; assay type: cell-based
T2 construct: endogenous in cells; host or cells: THP-1 cells differentiated with PMA
T2 sequence (P21757 1-451): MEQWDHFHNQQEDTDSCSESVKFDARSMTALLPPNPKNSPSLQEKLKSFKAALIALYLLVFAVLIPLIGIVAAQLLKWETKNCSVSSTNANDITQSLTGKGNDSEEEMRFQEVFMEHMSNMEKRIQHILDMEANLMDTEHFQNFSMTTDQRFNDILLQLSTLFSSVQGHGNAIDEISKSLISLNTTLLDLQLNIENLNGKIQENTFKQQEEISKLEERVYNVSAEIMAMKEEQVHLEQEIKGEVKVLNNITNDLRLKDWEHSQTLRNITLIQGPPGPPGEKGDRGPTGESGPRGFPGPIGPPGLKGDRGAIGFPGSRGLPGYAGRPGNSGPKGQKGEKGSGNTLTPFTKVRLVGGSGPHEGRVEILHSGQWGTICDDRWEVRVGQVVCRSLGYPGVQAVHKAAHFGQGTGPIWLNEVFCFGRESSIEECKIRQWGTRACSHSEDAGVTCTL

parental HEK293 cells = experiment: Electrochemiluminescence antibody binding assay, non-specific binding control cells; assay type: cell-based, human
[4] = molecular target: T3, MSR1-mediated Dil-AcLDL uptake in HEK293.Myc.hMSR1 cells (Homo sapiens, UniProt P21757); experiment: Ligand uptake assay, Dil-AcLDL; assay type: cell-based; conditions: 10 μg/mL Dil-AcLDL
T3 construct: expressed in transfected cells; host or cells: HEK293 (lentiviral transduction, hygromycin selection)
T3 sequence (P21757 1-451): T2 sequence (P21757 1-451)
Protocol: A bioassay was generated to assess the ability of the exemplary anti-MSR1 antibodies to regulate the uptake of certain MSR1 ligands.
Generation of MSR1-expressing cell lines for assay. […] The resulting cell line, referred to here as “HEK293.Myc.hMSR1”, was selected and maintained in DMEM containing 10% FIBS, NEAA, penicillin/streptomycin, L-glutamine, and 100 μg/mL hygromycin.
Ligand uptake assay. […] After 30 minutes, either oxidized or acetylated low-density lipoprotein (LDL) labeled with 1,1′dioctadecyl-3,3,3′,3′-tetramethylindocarbocyanine perchlorate (referred to as “Dil-OxLDL” or “Dil-AcLDL,” respectively) was added to the cells at a constant concentration of 10 μg/mL. […] Results were analyzed using nonlinear regression (4-parameter logistics) with the Prism 7 program to obtain EC50 and IC50 values. The percentage of inhibition was calculated with the Relative Fluorescent Unit (RFU) values by using the following equation: […]
In the equation, “RFUBaseline” is the fluorescence value from the cells treated with 10 μg/mL ligand without antibodies, “RFUInhibition” is the minimum fluorescence value with for a particular antibody with 10 μg/mL ligand, and “RFUBackground” is the fluorescence value from cells without any ligand or antibodies.

Sequence of HMM-mfMSR1 (monkey MSR1 extracellular domain) (as listed by the source): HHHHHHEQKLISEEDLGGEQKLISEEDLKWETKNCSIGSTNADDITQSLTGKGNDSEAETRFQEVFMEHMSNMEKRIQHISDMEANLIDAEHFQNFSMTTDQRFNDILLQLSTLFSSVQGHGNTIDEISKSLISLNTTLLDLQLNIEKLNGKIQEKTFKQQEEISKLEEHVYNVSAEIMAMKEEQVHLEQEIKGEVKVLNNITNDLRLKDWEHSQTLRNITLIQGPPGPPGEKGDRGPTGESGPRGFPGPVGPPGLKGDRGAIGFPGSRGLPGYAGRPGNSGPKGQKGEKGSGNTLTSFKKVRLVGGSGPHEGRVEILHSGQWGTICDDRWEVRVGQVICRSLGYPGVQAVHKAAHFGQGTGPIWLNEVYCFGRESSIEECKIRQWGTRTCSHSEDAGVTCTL

ka [1]: 312000 M⁻¹ s⁻¹ | kd [1]: 0.000571 s⁻¹ | ka [2]: 360000 M⁻¹ s⁻¹ | kd [2]: 0.000527 s⁻¹ | Ratio of 11 nM Antibody Binding Signal (RLU) to isotype control, PMA-treated THP-1 [3]: 8
B1: H2aM25695N: one of "Twelve anti-MSR1 antibodies"; "an “H2aM” antibody has a mouse IgG2a Fc" (antibody, V domains shown)
VH: QVQLQESGPGLVKPSETLSLTCTVTGGSISRNYWSWIRQPPGKGLEWIGYIYYSGSINYNPSLKSRVTISVDMSKNQFSLKLNSVTAADTAVYYCARDRWNWKYGMDVWGQGTTVIVSS
VL: EIVLTQSPGTLSLSPGERATLSCRASQTVRNSYLAWYHQKPGQAPRLLIYGASSRATGIPDRFSGSGSGTDFTLTISRLEPEDFAVYYCQQYGSSYWTFGQGTKMEIKR
Ratio of 11 nM Antibody Binding Signal (RLU) to isotype control, HEK293 (parental HEK293 cells): 5

ka [1]: 135000 M⁻¹ s⁻¹ | kd [1]: 0.00222 s⁻¹ | ka [2]: 300000 M⁻¹ s⁻¹ | kd [2]: 0.00021 s⁻¹ | Ratio of 11 nM Antibody Binding Signal (RLU) to isotype control, PMA-treated THP-1 [3]: 56 | Dil-Acetylated LDL IC50 [4]: no inhibition | maximum inhibition of Dil-AcLDL uptake [4]: no inhibition | Dil-Acetylated LDL % Inhibition ([4]; maximum inhibition): no inhibition
B2: H2aM21229N: one of "Twelve anti-MSR1 antibodies"; "an “H2aM” antibody has a mouse IgG2a Fc" (antibody, V domains shown)
VH: EVQLVESGGGLVKPGGSLRLSCAASGFTFSRYSMNWVRQAPGKGLEWVSSISSSSSYIYYGDTVKGRFTISRDNAKKSLYLQMNSLRAEDTAVYYCVRDRGQLVLYFDYWGQGTLVTVSS
VL: DIQMTQSPASLSTSIRDRVTITCRASLSISSFLNWFQQRPGKAPKLLIYVASNLQSGVPSRFSDSGSGTDFTLTISSLQPEDFATYYCQQNYSTPPITFGQGTRLEIK
Ratio of 11 nM Antibody Binding Signal (RLU) to isotype control, HEK293 (parental HEK293 cells): 36

Source: patent US12497460B2, “Anti-MSR1 antibodies and methods of use thereof” (REGENERON PHARMACEUTICALS, INC., priority 2018, dated 2025)
